Source: PMC4251497 (2014)

B1: Phenylalanine hydroxylase regulatory domain (RDPheH) 1-117 (protein)
chain: MAAVVLENGVLSRKLSDFGQETSYIEDNSNQNGAISLIFSLKEEVGALAKVLRLFEENDINLTHIESRPSRLNKDEYEFFTYLDKRTKPVLGSIIKSLRNDIGATVHELSRDKEKNT
B2: Phenylalanine hydroxylase regulatory domain (RDPheH25-117) 25-117 (protein)
chain: IEDNSNQNGAISLIFSLKEEVGALAKVLRLFEENDINLTHIESRPSRLNKDEYEFFTYLDKRTKPVLGSIIKSLRNDIGATVHELSRDKEKNT

Target: the molecule itself
Test: analytical ultracentrifugation

Row | Protein | Kd
1 | B1 | 46 µM
2 | B2 | 46 µM
